Experimental data reported in patent US12018084B2, “Anti-CXCR2 antibodies and uses thereof” (Cephalon LLC, priority 2018, dated 2024).
Substitutions are numbered along the chain they refer to. In names and notes the source's numbering stands.

T1: Murine CXCR2 (Mus musculus, UniProt P35343)
T1 construct: expressed in transfected cells
T1 sequence (P35343 1-359): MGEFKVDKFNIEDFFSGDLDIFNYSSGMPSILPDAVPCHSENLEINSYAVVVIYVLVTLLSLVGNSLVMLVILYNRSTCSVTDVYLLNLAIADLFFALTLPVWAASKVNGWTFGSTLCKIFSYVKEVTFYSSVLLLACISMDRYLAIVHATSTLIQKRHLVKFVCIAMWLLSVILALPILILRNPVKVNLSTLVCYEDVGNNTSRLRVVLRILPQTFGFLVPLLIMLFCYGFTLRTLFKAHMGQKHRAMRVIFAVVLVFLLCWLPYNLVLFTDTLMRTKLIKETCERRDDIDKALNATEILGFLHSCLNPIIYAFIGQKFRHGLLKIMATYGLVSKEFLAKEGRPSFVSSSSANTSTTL

T2: Human CXCR2 (Homo sapiens, UniProt P25025)
T2 sequence (P25025 1-360): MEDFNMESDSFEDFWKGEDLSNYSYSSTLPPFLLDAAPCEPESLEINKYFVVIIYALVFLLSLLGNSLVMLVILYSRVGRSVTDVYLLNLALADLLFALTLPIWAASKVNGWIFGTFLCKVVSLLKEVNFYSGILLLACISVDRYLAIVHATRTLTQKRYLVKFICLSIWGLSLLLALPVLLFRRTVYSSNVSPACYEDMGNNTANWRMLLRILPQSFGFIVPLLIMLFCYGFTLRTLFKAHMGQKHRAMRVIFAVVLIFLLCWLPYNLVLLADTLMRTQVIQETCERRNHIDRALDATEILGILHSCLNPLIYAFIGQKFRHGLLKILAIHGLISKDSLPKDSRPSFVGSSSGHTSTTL

B1: BKO-9A8: VH SEQ ID NO: 47, VL SEQ ID NO: 48 (antibody, V domains shown)
VH: EVQLLESGGGLVQTGGSLRLSCAASGFTFSSNTMSWVRQAPGKGLEWVSAISGSGGRTYYVDSVKGRFTISRDNSKNTLYLQMHSLRAEDTAVYYCAIQLGSWGQGILVTVSS
VL: QSALTQPPSASGSPGQSVTISCTGTSSDVGAYNYVSWYQQHPGKAPKLMIYEVTKRPSGVPDRFSGSKSGNTASLTVSGLQAEDEADYYCSSYAGNNNFGVFGGGTKLTVL
modifications: BKO_9A8_H3_F03_VH; BKO_9A8_L1_H02_VL
B2: BKO-3F4: VH SEQ ID NO: 15, VL SEQ ID NO: 16 (antibody, V domains shown)
VH: EVQLLESGGGLVQPGGSLRLSCAASGLTFSSYAMSWVRQAPGKGLEWVSAISGSGGKIYYADSVKGRFTISRDNSKNTLYLQMNSLRAEDTAVYYCAIQVGYWGQGTLVTVSS
VL: B1 VL with I20M, A31G, S36T, T54S, D62A, N96P
modifications: BKO_3F4_VH; BKO_3F4_L11_A11_VL
B3: BKO-2D8: VH SEQ ID NO: 9, VL SEQ ID NO: 10 (antibody, V domains shown)
VH: B1 VH with T14P, F27Y, S30T, N32S, S49T, S54R, V61A, H84N, S102N
VL: B1 VL with V29I, A31G, M49V, T54N, K55M, D62A, N97D, T109S
modifications: BKO_2D8_VH; BKO_2D8_VL
B4: BKO-1D1: VH SEQ ID NO: 5, VL SEQ ID NO: 6 (antibody, V domains shown)
VH: B2 VH with G26K, S30K, S31N, Y32S, S52T, K57R, I58T, V93I, V100M, T107I
VL: B1 VL with A31G, T54N, D62A, N96S
modifications: BKO_1D1_VH; BKO_1D1_VL
B5: BKO-10G10: VH SEQ ID NO: 51, VL SEQ ID NO: 52 (antibody, V domains shown)
VH: QLQLQESGPGLVKPSETLSLTCTVSGGSIRRSSYYWGWIRQPPGKGLEWIGSFYNSGNTYYKPSLKSRVAISVDTPKNQFSLKLSSVTAADTAVYYCARGYSSGGFDPWGQGTLVTVSS
VL: QSALTQPASVSGSPGQSITISCTGTSSDVGGYNYVSWCQQHPGKAPKIMIFDVSNRPSGVSNRFSGSKSGNTASLTISGLQAEDEADYYCSSYTSSSTWVFGGGTRLTVL
modifications: BKO_10G10_VH; BKO_10G10_VL
B6: BKO-4F10: VH SEQ ID NO: 19, VL SEQ ID NO: 20 (antibody, V domains shown)
VH: QVQLVQSGAEVKKPGASVKVSCKASGYTFTGYYIHWVRQAPGQGLEWMGRFNPNNGGTNYAQRFQGRVTMTRDTSISTAYMELSRLRSDDTAVYYCARGPTIRLWFDNWFDSWGQGTLVTVSS
VL: B5 VL with C38Y, I48L, F51Y, V60I, R106K
modifications: BKO_4F10_VH; BKO_4F10_VL
B7: BKO-8H10: VH SEQ ID NO: 43, VL SEQ ID NO: 44 (antibody, V domains shown)
VH: QVQLVQSGAEVKKPGASVKVSCKASGYTFTGYYIHWVRQAPGQGLEWMGRIKPDSGGTNYAQKFQGRVTMTRDTSITTAYMELSRLRSDDTAVYYCARGGSGWDYWGQGTLVTVSS
VL: QSALTQPPSASGSPGQSVTISFTGTSRDVGDYNYVSWYQQHPGKAPKLMIYEVNKRPSGVPDRFSGSKSGNTASLTVSGLQAEDEADYYCSSYAGSNTYVFGTGTKVTVL
modifications: BKO_8H10_VH; BKO_8H10_VL
B8: BKO-1B10: VH SEQ ID NO: 3, VL SEQ ID NO: 4 (antibody, V domains shown)
VH: QLQLQESGPGLVKPSETLSLTCTVSGGSIRTSSYYWGWIRQPPGKGLEYIGSIYYSGTTYYNPSLKSRVTMSVDTSKNQFSLKLSSVTAADTAVYYCARHGRVREVPPFDYWGQGTLVTVSS
VL: SSELTQDPAVSVALGQTVRITCQGDSLRYYYASWYQQKPGQAPVLVIYDENSRPSGIPDRFSGSSSGNTASLRITGTQAEDEADYYCNSRDTSGNHWAFGGGTKLTVL
modifications: BKO_1B10_VH; BKO_1B10_VL
B9: BKO-5E8: VH SEQ ID NO: 21, VL SEQ ID NO: 22 (antibody, V domains shown)
VH: EVQLLESGGGLVQPGGSLRLSCAASGFTFSSYAMSWVRQAPGRGLEWVSAIRGSGAGTYYADSMKGRFTISRDNSKDTLYLLMNSLRAEDTAVYYCSKLEAVSGTGKYFQHWGQGTLVTVSS
VL: SYELTQPPSVSVSPGQTANITCSGDTLGDKFACWYQQKPGQSPVLVIYQDTKRPSGIPERFSGSKSGITATLTISGTQAMDEADFYCQAWNSRGVVFGGGTRLTVL
modifications: BKO_5E8_H5_C05_VH; BKO_5E8_L3_C03_VL
B10: 103c: VH SEQ ID NO: 163, VL SEQ ID NO: 110 (antibody, V domains shown)
VH: B2 VH with L27F, Y32S, A33T, M34Q, A40P, K57S, I58T, V100M, T107I
VL: B1 VL with T23I, A31G, T54S, N96S
modifications: 4A8 VH Variant 103 M34Q_A40P_R53S_R55G_N56S_ R75K; 4A8 VL variant c D41G_N52S_N94S
B11: 104c: VH SEQ ID NO: 164, VL SEQ ID NO: 110 (antibody, V domains shown)
VH: B2 VH with L27F, Y32S, A33T, M34Q, A40P, K57S, I58T, V100K, T107I
VL: B1 VL with T23I, A31G, T54S, N96S
modifications: 4A8 VH Variant 104 M34Q_A40P_R53S_R55G_N56S_ R75K_M96K; 4A8 VL variant c D41G_N52S_N94S
B12: 105c: VH SEQ ID NO: 165, VL SEQ ID NO: 110 (antibody, V domains shown)
VH: B2 VH with L27F, Y32S, A33T, M34Q, A40P, K57S, I58T, V100A, T107I
VL: B1 VL with T23I, A31G, T54S, N96S
modifications: 4A8 VH Variant 105 M34Q_A40P_R53S_R55G_N56S_ R75K_M96A; 4A8 VL variant c D41G_N52S_N94S

Target: T1, Murine CXCR2
Assay: cELISA of hybridoma supernatants on cells transfected with murine CXCR2
Type: binding
Details: hybridoma supernatant; fluorescence units relative to positive control (100%)

Murine CXCR2 % Positive [%] | Molecule
8 | B1
42 | B2
7 | B3
7 | B4
4 | B5
7 | B6
8 | B7
4 | B8
8 | B9

Target: T2, Human CXCR2
Assay: cELISA of hybridoma supernatants on cells transfected with human CXCR2
Type: binding
Set-up: host or cells: Expi293F cells, vector pTT5
Details: hybridoma supernatant; fluorescence units relative to positive control (100%)
Method: To generate hybridomas which produced monoclonal antibodies to human CXCR2, splenocytes and/or lymph node cells from animals with the highest anti-CXCR2 titres were isolated and fused to mouse myeloma cells (ATCC, CRL-1580). Cells were plated at approximately 1×10^5 cells/mL in flat bottom microtiter plates, followed by a two week incubation in selective medium (10% FCS and 1×HAT (Sigma)). Hybridomas were expanded by serial passage through four media changes in 96-well plates (96-well stages 1 to 4), then, where required, expanded into T25 and T75 flasks. […] Bound antibodies were detected using a goat anti-rat IgG-HRP (Southern Biotech, #3030-05) secondary antibody.
A panel of hybridomas was generated using lymph nodes and spleen cells from the transgenic rats engineered to express human variable region sequences. A cellular ELISA (cELISA) was used to detect human CXCR2 binding activity in supernatants taken during the expansion process for the hybridomas (Table 5). Hybridomas that retained expression of antibodies that bound CXCR2 after several passages were selected for DNA sequencing.

Human CXCR2 % Positive [%] | Molecule
124 | B1
86 | B2
100 | B3
67 | B4
89 | B5
118 | B6
81 | B7
75 | B8
109 | B9

Target: T2, Human CXCR2
Assay: Tango CXCR2-bla U2OS cell-based β-arrestin recruitment assay
Set-up: The beta-arrestin/TEV protease fusion and the beta-lactamase reporter are separate parts of the cell line
Details: CXCL1 or CXCL8 as agonist
Source text: Cells were thawed, propagated, cultured and frozen according to the manufacturer's directions.
Preparation of Tango™ CXCR2-bla U2OS cells for use in cell-based assays: The manufacturer's protocol was altered to make use of 96-well plates instead of 384-well plates. Briefly, dividing cells were harvested one day prior to use. Cells were harvested and resuspended in assay medium (100% FreeStyle™ Expression Medium; Life Technologies; Cat #12338-018) at a viable cell density of 312,500 cells/mL. 128 μL of cell suspension was added per well in 96-well black-walled, clear bottom tissue culture-treated plates. Cells were incubated for 16-20 hrs at 37° C. in an atmosphere of 5% CO2 prior to use in assays.
Tango™ assay procedure: Assays were set up and run as described in the manufacturer's protocol. For antagonist assays, agonists were used at concentrations in the EC50-EC80 range. Assays were read using a FlexStation® 3 (Molecular Devices) fluorescence plate reader configured with the parameters given in Table 4. The blue/green emission ratio for each well was calculated by dividing the blue emission values by the green emission values. All inhibition curves were fitted using a four-parameter dose-response using GraphPad Prism™ (Version 7.01).
The Human CXCR2 Tango™ cell line was used to assess the ability of antibody BKO-4A8-101c to inhibit β-arrestin recruitment to agonist-activated CXCR2. All human ELR+ chemokine CXCR2 ligands were tested in antagonist dose response assays using calculated EC50 values of agonist.
The commercially available reporter cell line Tango™ CXCR2-bla U2OS (ThermoFisher Scientific) was used to assess the ability of the anti-CXCR2 antibodies to inhibit β-arrestin recruitment to agonist-activated CXCR2. Agonists were provided at their assay EC50 concentration for antagonist assays.

potency compared to the parental antibody | Molecule
reduced potency | B10
reduced potency | B11
reduced potency | B12
